The record followed here is IntAct's records for PubMed 24525235.

In assay [1] the target is twst1_human TWIST1 (UniProt Q15672).
Assay [2] shares this target. This is another data set of the same source.

Take “Bromodomain-containing protein 4 (Homo sapiens) (from UniProt O60885-1) D144H”: the “effect of a mutation on the interaction” value with twst1_human TWIST1 [1] is recorded as “increasing interaction strength”.
Take “Bromodomain-containing protein 4 (Homo sapiens) (from UniProt O60885-1) H437D”: the “effect of a mutation on the interaction” value with twst1_human TWIST1 [2] is “decreasing interaction strength”.
